Source: patent US20120022228A1, “PURIFICATION OF AMPHOTERIC PRODUCTS, OR OF PRODUCTS LIABLE TO BE CONVERTED INTO AMPHOTERIC PRODUCTS” (CENTRE NATIONAL DE LA RECHERCHE SCIENTIFIQUE, priority 2010, published 2012)
Peptide text beside a SMILES is read from it.

Experiments:
Assay type in all cases: physicochemical
[1] = CPC run in elution mode, stability of SF328 in the solvent system; details: MtBE/CH3CN/BuOH/Water 1% TFA (2:1:2:5, v/v), Example 54
Procedure: Only the system MtBE/CH3CN/BuOH/Water 1% TFA (2:1:2:5, v/v) was tested. The experimental conditions were: • Rotation speed: 1300 rpm. • Sample injected: 100 mg. • Elution mode: ascending. • Flow rate: 8 ml/min.
This system causes the degradation of SF328.

[2] = Partition coefficient of SF328 evaluated by TLC in different biphasic solvent systems
Procedure: Partition coefficient of SF328 was evaluated by TLC in different biphasic solvent systems. In the elution mode, it is required that the KD value of the compound of interest lies between 0.2 and 5 (preferentially about 1).

[3] = Partition of dipeptides between organic and aqueous phase as a function of percentage of deprotonation of the exchanger (FIG. 4); details: exchanger DEHPA deprotonated to 30%
Source text: FIG. 4 is a graphic representing the solubility of dipeptides in either an organic or an aqueous phase in function of the percentage of deprotonation of an exchanger dissolved in […]. In abscissae, the percentage of deprotonation of the exchanger is represented; said abscissae are graduated from 0 to 30%. The ordinates represent a partition coefficient between the organic phase and the aqueous phase, said ordinates being graduated from 0 to 1.
The Influence of the percentage of deprotonated exchanger over the CPC purification of dipeptides GG, GY and LV is determined. […]

Compound: H-Asp-Glu-Asn-Pro-Val-Val-His-Phe-Phe-Lys-Asn-Ile-Val-Thr-Pro-Arg-Thr-OH (H-DENPVVHFFKNIVTPRT-OH) [SF328]
- Stability in the solvent system [1]: degradation
- Evaluation KD ([2]; BuOH/Acetic acid/Water (4:1:5, v/v)): average
- Evaluation KD ([2]; BuOH/Acetic acid/Water (5:1:4, v/v)): poor
- Evaluation KD ([2]; MtBE/CH3CN/BuOH/Water 1% TFA (2:1:2:5, v/v)): good
- Evaluation KD ([2]; MtBE/CH3CN/Water (2:2:3, v/v)): poor
- Evaluation KD ([2]; MtBE/CH3CN/Water (3:2:5, v/v)): average

Compound: CC(C)C[C@H](N)C(=O)N[C@H](C(=O)O)C(C)C [LV, LeucylValine] (H-Leu-Val-OH)
- peptide extraction (partition organic/aqueous phase) [3]: improvement
